{
  "source": "paper PMC8938308",
  "about": "(Human genetics, 2021)",
  "molecular_target": "sodium/potassium-transporting ATPase ATP1A3, F309S mutant, V5-tagged (human, UniProt P13637-3 1-1026, F309S)",
  "test": "co-IP",
  "data": [
    {"binder": "TOMM22, GFP-tagged (natural protein, UniProt Q9NS69 1-142, looked up) MAAAVAAAGAGEPQSPDELLPKGDAEKPEEELEEDDDEELDETLSERLWGLTEMFPERVRSAAGATFDLSLFVAQKMYRFSRAALWIGTTSFMILVLPVVFETEKLQMEQQQQLQQRQILLGPNTGLSGGMPGALPSLPGKI", "values": [
      {"measurement": "reduction of the interaction against WT ATP1A3", "value": "~50", "unit": "%"}
    ]}
  ]
}
